According to patent publication US20150253303A1 (FORSCHUNGSVERBUND BERLIN E V, published 2015):

T1: KCC1 plasma membrane ion transporter, endogenous in HEK cells (UniProt Q9UP95 1-1085, limits assumed)
T1 construct: whole, on cells; also called SLC12A4
T1 sequence (looked up): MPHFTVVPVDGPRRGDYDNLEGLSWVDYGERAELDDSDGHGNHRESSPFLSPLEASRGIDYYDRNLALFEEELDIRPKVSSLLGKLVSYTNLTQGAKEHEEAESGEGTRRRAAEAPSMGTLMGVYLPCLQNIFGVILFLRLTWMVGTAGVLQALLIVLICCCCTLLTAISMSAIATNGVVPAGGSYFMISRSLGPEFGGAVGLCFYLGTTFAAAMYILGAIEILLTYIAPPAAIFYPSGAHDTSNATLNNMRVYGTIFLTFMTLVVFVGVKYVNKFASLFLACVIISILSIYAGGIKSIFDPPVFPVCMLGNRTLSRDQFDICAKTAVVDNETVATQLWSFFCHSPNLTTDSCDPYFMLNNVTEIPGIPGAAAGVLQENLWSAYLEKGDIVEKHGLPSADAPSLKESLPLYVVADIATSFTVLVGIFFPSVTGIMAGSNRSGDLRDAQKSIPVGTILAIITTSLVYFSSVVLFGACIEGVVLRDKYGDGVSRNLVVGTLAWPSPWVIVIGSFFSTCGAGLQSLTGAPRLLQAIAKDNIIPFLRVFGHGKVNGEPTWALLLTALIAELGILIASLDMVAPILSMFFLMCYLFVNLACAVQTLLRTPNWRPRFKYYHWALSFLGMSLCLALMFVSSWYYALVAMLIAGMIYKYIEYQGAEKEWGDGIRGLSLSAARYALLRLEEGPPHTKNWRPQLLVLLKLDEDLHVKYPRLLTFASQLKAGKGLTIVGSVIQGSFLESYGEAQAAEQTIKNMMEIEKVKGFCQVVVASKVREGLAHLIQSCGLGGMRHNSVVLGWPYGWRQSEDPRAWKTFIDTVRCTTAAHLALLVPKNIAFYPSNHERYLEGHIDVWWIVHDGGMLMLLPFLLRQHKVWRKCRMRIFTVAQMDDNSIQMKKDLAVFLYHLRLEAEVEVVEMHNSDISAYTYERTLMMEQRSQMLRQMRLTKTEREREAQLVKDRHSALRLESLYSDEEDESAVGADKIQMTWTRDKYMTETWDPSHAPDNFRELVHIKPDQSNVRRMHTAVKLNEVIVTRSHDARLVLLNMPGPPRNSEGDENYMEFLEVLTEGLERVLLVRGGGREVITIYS

B1: LRRC8A (leucine-rich repeat-containing protein 8, family member A), human (other, UniProt Q8IWT6 1-810, looked up)
chain: MIPVTELRYFADTQPAYRILKPWWDVFTDYISIVMLMIAVFGGTLQVTQDKMICLPCKWVTKDSCNDSFRGWAAPGPEPTYPNSTILPTPDTGPTGIKYDLDRHQYNYVDAVCYENRLHWFAKYFPYLVLLHTLIFLACSNFWFKFPRTSSKLEHFVSILLKCFDSPWTTRALSETVVEESDPKPAFSKMNGSMDKKSSTVSEDVEATVPMLQRTKSRIEQGIVDRSETGVLDKKEGEQAKALFEKVKKFRTHVEEGDIVYRLYMRQTIIKVIKFILIICYTVYYVHNIKFDVDCTVDIESLTGYRTYRCAHPLATLFKILASFYISLVIFYGLICMYTLWWMLRRSLKKYSFESIREESSYSDIPDVKNDFAFMLHLIDQYDPLYSKRFAVFLSEVSENKLRQLNLNNEWTLDKLRQRLTKNAQDKLELHLFMLSGIPDTVFDLVELEVLKLELIPDVTIPPSIAQLTGLKELWLYHTAAKIEAPALAFLRENLRALHIKFTDIKEIPLWIYSLKTLEELHLTGNLSAENNRYIVIDGLRELKRLKVLRLKSNLSKLPQVVTDVGVHLQKLSINNEGTKLIVLNSLKKMANLTELELIRCDLERIPHSIFSLHNLQEIDLKDNNLKTIEEIISFQHLHRLTCLKLWYNHIAYIPIQIGNLTNLERLYLNRNKIEKIPTQLFYCRKLRYLDLSHNNLTFLPADIGLLQNLQNLAITANRIETLPPELFQCRKLRALHLGNNVLQSLPSRVGELTNLTQIELRGNRLECLPVELGECPLLKRSGLVVEEDLFNTLPPEVKERLWRADKEQA
notes: whole, on cells; Used for endogenous LRRC8A and for transfected LRRC8A; Co-IPs were done on detergent lysates; also called endogenous LRRC8A; native LRRC8A

Legend:
[1] = molecular target: B1; test: immunoprecipitation of endogenous proteins from WT HEK lysate
[2] = molecular target: LRRC8C-GFP (human LRRC8C fused C-terminally to GFP) (human, UniProt Q8TDW0 1-803; P42212 1-238 = GFP); test: cell-based or functional assay
[3] = molecular target: LRRC8D-GFP (human LRRC8D fused C-terminally to GFP) (human, UniProt Q7L1W4 1-858; P42212 1-238 = GFP); test: cell-based or functional assay
[4] = molecular target: LRRC8E-GFP (human LRRC8E fused C-terminally to GFP) (human, UniProt Q6NSJ5 1-796; P42212 1-238 = GFP); test: cell-based or functional assay
[5] = molecular target: GFP-ClC-1 (human ClC-1 Cl- channel in pEGFP-C1) (human, UniProt P42212 1-238 = GFP; P35523 1-988); test: co-immunoprecipitation from double-transfected HEK cells, Western blot
Excerpt: The changed banding pattern of the mutant might result from altered posttranslational modifications. n.t., non-transfected. (C) Immunofluorescence using HA antibody of non-permeabilized versus permeabilized HeLa cells transfected with GFPLRRC8A carrying an HA-tag as indicated. Overlays of GFP (green) and HA (red) labeling. Insets show exclusively HA-staining. Scale bar, 20 μm. (D) LRRC8A co-precipitated epitopetagged LRRC8B through LRRC8E in double-transfected HEK cells. LRRC8B and LRRC8D were poorly expressible. […] (F) Epitope-tagged LRRC8B through LRRC8E co-precipitated LRRC8A. (G) Heteromerization of endogenous LRRC8 proteins. LRRC8A co-precipitated LRRC8E (for which a suitable antibody was available) in immunoprecipitation with an LRRC8A antibody from wild-type (WT) HEK cell lysate, but not from the LRRC8A−/− knockout (KO, clone 3E7). […] Lysate equivalent to 25% of input was loaded as reference (input).
For co-immunoprecipitation, HEK cells were co-transfected with plasmids (6 μg total) encoding myc-tagged or untagged LRRC8A and N-terminal fusion constructs of LRRC8A-E or ClC-1 (or soluble GFP) on 10 cm dishes using PEI as described above. […] After four washes with 500 μl IP buffer, precipitates were eluted in 40 μl Lämmli sample buffer, separated by SDS-PAGE and analyzed by Western blot as indicated. […]

[6] = molecular target: T1, KCC1 plasma membrane ion transporter, …; test: immunoprecipitation with LRRC8A antibody from WT HEK cell lysate, Western blot

| Binder | binding result [1] | V1/2 from Boltzmann fits (voltage-dependent inactivation of ICl(swell)) [2] [mV] | V1/2 from Boltzmann fits (voltage-dependent inactivation of ICl(swell)) [3] [mV] | V1/2 from Boltzmann fits (voltage-dependent inactivation of ICl(swell)) [4] [mV] | binding result [5] | binding result [6] |
| --- | --- | --- | --- | --- | --- | --- |
| LRRC8E, endogenous (native) human protein (other, UniProt Q6NSJ5 1-796, looked up, whole, on cells; Untagged endogenous protein in cell lysates; also called native LRRC8E) MIPVAEFKQFTEQQPAFKVLKPWWDVLAEYLTVAMLMIGVFGCTLQVTQDKIICLPNHELQENLSEAPCQQLLPRGIPEQIGALQEVKGLKNNLDLQQYSFINQLCYETALHWYAKYFPYLVVIHTLIFMVCTSFWFKFPGTSSKIEHFISILGKCFDSPWTTRALSEVSGENQKGPAATERAAATIVAMAGTGPGKAGEGEKEKVLAEPEKVVTEPPVVTLLDKKEGEQAKALFEKVKKFRMHVEEGDILYTMYIRQTVLKVCKFLAILVYNLVYVEKISFLVACRVETSEVTGYASFCCNHTKAHLFSKLAFCYISFVCIYGLTCIYTLYWLFHRPLKEYSFRSVREETGMGDIPDVKNDFAFMLHLIDQYDSLYSKRFAVFLSEVSESRLKQLNLNHEWTPEKLRQKLQRNAAGRLELALCMLPGLPDTVFELSEVESLRLEAICDITFPPGLSQLVHLQELSLLHSPARLPFSLQVFLRDHLKVMRVKCEELREVPLWVFGLRGLEELHLEGLFPQELARAATLESLRELKQLKVLSLRSNAGKVPASVTDVAGHLQRLSLHNDGARLVALNSLKKLAALRELELVACGLERIPHAVFSLGALQELDLKDNHLRSIEEILSFQHCRKLVTLRLWHNQIAYVPEHVRKLRSLEQLYLSYNKLETLPSQLGLCSGLRLLDVSHNGLHSLPPEVGLLQNLQHLALSYNALEALPEELFFCRKLRTLLLGDNQLSQLSPHVGALRALSRLELKGNRLEALPEELGNCGGLKKAGLLVEDTLYQGLPAEVRDKMEEE | binds | – | – | – | – | – |
| B1 | – | 116 | 72.4 | 45.9 | no binding | no binding |
